Data from IntAct's records for PubMed 21216997.

What was measured:
ftsz_ecoli ftsZ [1] = biological target: ftsz_ecoli ftsZ (UniProt P0A9A6)
ftsz_ecoli ftsZ [2] = biological target: ftsz_ecoli ftsZ (UniProt P0A9A6); remark: listed apart in the source

ftsz_ecoli ftsZ, sequence (P0A9A6 whole entry): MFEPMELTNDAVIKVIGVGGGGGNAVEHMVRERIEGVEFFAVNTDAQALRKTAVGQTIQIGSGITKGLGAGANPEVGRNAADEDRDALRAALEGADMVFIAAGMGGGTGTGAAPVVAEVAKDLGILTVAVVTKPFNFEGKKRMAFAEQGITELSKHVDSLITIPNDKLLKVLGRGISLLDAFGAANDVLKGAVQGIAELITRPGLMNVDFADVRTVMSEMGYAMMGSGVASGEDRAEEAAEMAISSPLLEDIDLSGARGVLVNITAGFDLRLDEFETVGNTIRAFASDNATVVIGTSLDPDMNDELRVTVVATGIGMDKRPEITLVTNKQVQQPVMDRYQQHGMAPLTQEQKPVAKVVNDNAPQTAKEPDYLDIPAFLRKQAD

effect of a mutation on the interaction (ftsz_ecoli ftsZ [1]): decreasing interaction strength
effect of a mutation on the interaction (ftsz_ecoli ftsZ [2]): disrupting interaction
Substance: Cell division protein ZapC (Escherichia coli (strain K12)), P75862 L22P
